Reference: paper PMC4414246

Molecular target: U1A E19S (UniProt P09012 10-89, E19S)
Experiment: fluorescence polarization

Sequence of U1A E19S (P09012 10-89 E19S): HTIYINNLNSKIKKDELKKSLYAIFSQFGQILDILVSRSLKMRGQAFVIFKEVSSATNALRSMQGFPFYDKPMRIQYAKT

B1: TAR RNA (structured_RNA)
RNA: GGCAGAUCUGAGCCUGGGAGCUCUCUGCC
  binding signal: ~1.6 fold lower affinity than without tRNA
